Test results: paper doi:10.1101/2022.04.26.489605 (bioRxiv, 2022)
Values joined by “and” are separate entries in the source; they are usually repeats but may differ in a detail not shown here. Identical values can stand only once.

B1: Rab29 (residues 1-177) Q67L/T71A/S72A, GST tag removed (domain or fragment, human, UniProt O14966 1-177, looked up)
chain: MGSRDHLFKVLVVGDAAVGKTSLVQRYSQDSFSKHYKSTVGVDFALKVLQWSDYEIVRLQLWDIAGLERFAAMTRLYYRDASACVIMFDVTNATTFSNSQRWKQDLDSKLTLPNGEPVPCLLLANKCDLSPWAVSRDQIDRFSKENGFTGWTETSVKENKNINEAMRVLIEKMMRNS

How the values were obtained:
[1] = target: human leucine-rich repeat kinase 2 (LRRK2), full-length, recombinant (human) (UniProt Q5S007); experiment: cryo-EM structure
[2] = target: human leucine-rich repeat kinase 2 (LRRK2), full-length, recombinant (human, UniProt Q5S007 1-2527, R50H | S1647T | M2397T); experiment: cryo-EM structure
human leucine-rich repeat kinase 2 (LRRK2), full-length, recombinant, sequence (Q5S007 whole entry R50H/S1647T/M2397T): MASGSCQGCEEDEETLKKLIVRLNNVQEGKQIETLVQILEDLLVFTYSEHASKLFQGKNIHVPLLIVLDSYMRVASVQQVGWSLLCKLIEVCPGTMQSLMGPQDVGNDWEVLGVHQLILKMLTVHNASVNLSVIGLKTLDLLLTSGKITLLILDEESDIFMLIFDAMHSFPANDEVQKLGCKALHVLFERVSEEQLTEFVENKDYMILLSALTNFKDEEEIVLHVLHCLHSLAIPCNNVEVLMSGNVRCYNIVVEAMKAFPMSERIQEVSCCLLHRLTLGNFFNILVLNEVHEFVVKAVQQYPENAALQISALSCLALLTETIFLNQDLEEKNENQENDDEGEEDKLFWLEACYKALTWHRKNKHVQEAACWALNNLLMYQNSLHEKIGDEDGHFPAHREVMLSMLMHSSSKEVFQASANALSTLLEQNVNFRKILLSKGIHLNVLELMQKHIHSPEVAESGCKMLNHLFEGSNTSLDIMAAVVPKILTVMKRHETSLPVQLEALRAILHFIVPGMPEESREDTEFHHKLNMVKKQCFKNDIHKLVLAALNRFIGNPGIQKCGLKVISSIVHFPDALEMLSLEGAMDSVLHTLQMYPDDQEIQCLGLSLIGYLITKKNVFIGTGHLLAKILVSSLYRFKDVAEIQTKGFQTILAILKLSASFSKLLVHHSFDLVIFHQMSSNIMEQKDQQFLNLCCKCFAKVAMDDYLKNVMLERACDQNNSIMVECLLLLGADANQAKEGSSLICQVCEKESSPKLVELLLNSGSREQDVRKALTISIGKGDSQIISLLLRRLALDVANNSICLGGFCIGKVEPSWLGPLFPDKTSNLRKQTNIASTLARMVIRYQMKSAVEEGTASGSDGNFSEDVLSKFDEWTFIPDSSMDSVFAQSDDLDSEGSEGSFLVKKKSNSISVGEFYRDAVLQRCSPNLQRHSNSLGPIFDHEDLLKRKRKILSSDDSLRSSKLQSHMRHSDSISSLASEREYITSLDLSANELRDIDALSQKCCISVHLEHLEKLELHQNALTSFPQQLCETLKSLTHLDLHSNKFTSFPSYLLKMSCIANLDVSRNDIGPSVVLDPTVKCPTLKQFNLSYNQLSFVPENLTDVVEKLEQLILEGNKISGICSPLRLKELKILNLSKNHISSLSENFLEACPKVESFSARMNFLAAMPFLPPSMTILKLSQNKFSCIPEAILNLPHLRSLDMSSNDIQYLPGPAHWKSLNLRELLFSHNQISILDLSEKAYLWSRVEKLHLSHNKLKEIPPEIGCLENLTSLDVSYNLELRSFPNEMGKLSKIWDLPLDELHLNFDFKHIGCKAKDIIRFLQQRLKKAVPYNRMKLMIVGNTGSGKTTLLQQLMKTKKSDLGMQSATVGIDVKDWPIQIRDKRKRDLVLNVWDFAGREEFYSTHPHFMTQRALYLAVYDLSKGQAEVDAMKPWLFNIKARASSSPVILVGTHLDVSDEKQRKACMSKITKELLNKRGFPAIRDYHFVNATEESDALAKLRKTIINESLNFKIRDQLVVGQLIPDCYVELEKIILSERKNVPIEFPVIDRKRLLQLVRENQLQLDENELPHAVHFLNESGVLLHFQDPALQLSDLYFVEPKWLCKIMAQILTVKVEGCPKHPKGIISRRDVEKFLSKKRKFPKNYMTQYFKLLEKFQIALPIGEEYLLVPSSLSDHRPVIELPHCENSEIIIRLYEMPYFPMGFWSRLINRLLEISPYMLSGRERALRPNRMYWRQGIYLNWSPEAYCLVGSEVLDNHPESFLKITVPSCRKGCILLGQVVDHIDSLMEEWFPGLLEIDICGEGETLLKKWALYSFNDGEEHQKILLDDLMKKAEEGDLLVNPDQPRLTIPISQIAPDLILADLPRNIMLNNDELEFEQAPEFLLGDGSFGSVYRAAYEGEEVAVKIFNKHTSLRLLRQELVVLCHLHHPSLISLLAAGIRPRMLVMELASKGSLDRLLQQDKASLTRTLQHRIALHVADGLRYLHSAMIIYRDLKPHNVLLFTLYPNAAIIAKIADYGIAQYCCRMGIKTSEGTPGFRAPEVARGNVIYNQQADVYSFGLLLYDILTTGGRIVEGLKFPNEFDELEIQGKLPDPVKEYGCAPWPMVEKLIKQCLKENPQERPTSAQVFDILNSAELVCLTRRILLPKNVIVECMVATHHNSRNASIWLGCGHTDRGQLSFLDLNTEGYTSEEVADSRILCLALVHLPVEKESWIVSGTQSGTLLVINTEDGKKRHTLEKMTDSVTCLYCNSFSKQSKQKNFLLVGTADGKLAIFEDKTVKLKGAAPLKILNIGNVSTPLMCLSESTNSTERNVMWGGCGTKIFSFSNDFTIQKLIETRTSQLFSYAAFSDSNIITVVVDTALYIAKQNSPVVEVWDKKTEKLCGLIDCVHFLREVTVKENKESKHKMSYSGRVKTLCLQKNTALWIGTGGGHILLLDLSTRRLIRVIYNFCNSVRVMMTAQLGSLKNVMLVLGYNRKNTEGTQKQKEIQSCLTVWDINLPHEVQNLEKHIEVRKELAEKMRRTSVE

Molecule	stoichiometry N (LRRK2 protomers) [1]	stoichiometry N [2] [Rab29 per LRRK2]
human leucine-rich repeat kinase 2 (LRRK2), full-length, recombinant, Q5S007 1-2527	2 and 4	–
B1	–	1
